Test results: patent CN114316037A

Substrate: O型口蹄疫病毒灭活抗原 (Foot-and-mouth disease virus, serotype O (strain not stated))

B1: 单克隆抗体m19 (O型口蹄疫病毒结构蛋白的单克隆抗体m19) (antibody, V domains shown)
VH: QVQLQQPGSELVRPGASVNLSCKASGYTFPSYWMHWVKQRPGQGLEWIGNIFPDGGFTNYDENFKSRATLTVDTSSSTAYMQLSSLTSEDSAVYYCTTIYDYVVGVGAMDYWGQGTSVTVSS
VL: DIVMTQSPAIMSASPGEKVTITCSASSSISYMYWFQQKTGTSPKLWIYKTSDLASGVPARFSGSGSGTSYSLTISRMEAEDAATYYCQQRNSYTFGGGTKLELK
最佳使用浓度 (concentration giving OD450 of 1.6): 7 µg/mL
